Results reported in US20250171534A1 (D2M BIOTHERAPEUTICS, published 2025).

Columns and labels:
[1] = molecular target: T1, LILRA3 expressed on 293T cells (UniProt Q8N6C8 24-439, limits assumed); assay: flow cytometry on 293T cells transiently expressing LILRA3, APC anti-human Fc; gMFI as fold to IgG staining
T1 construct: whole, on cells; GFP-tagged, transient

[2] = molecular target: T2, human LILRB2 expressed on cells (human, UniProt Q8N423 22-597); assay: flow cytometry, CHO-LILRB2 cells
T2 construct: In 293T cells it was expressed from pCMV3-LILRB2-GFP; also called CHO-LILRB2; Jurkat-LILRB2

[3] = molecular target: T3, LILRA2 expressed on 293T cells (UniProt Q8N149 24-483, limits assumed); assay: flow cytometry on 293T cells transiently expressing LILRA2, APC anti-human Fc; gMFI as fold to IgG staining
T3 construct: whole, on cells; GFP-tagged, transient

[4] = molecular target: T2, human LILRB2 expressed on cells; assay: flow cytometry, CHO-LILRB2 cells; remark: listed apart in the source
[5] = molecular target: T4, human LILRB1 expressed on cells (human, UniProt Q8NHL6 24-650); assay: flow cytometry on 293T cells transiently expressing LILRB1, APC anti-human Fc; gMFI as fold to IgG staining
T4 construct: In 293T cells it was expressed from pCMV3-LILRB1-GFP; also called CHO-LILRB1; Jurkat-LILRB1

[6] = molecular target: T5, LILRA5 expressed on 293T cells (UniProt A6NI73 42-299, limits assumed); assay: flow cytometry on 293T cells transiently expressing LILRA5, antibody 5 µg/mL, APC anti-human Fc; gMFI as fold to IgG staining
T5 construct: whole, on cells; GFP-tagged, transient

[7] = molecular target: T6, LILRB5 expressed on 293T cells (UniProt O75023 24-590, limits assumed); assay: flow cytometry on 293T cells transiently expressing LILRB5, APC anti-human Fc; gMFI as fold to IgG staining
T6 construct: whole, on cells; GFP-tagged, transient

[8] = molecular target: T7, LILRB2-ECD-HIS (SinoBiological Cat #: 14132-H02H) (human, UniProt Q8N423 22-460); assay: BLI epitope binning (Gator), monomeric antigen
T7 construct: Bought protein; also called monomeric antigen LILRB2-ECD-HIS; not shown: His tag

[9] = molecular target: T8, LILRB1-ECD-HIS (SinoBiological Cat #: 16014-H02H) (human, UniProt Q8NHL6 24-461); assay: BLI epitope binning (Gator)
T8 construct: Bought protein; also called monomeric antigen LILRB1-ECD-HIS; not shown: His tag

[10] = molecular target: T9, LILRB3 expressed on cells (human, UniProt O75022 24-631); assay: flow cytometry on 293T cells transiently expressing LILRB3, APC anti-human Fc; gMFI as fold to IgG staining
T9 construct: whole, on cells; Expressed with a GFP tag from the bought plasmid; also called human LILRB3; CHO-LILRB3

[11] = molecular target: T10, LILRA6 expressed on cells (human, UniProt Q6PI73 24-481); assay: flow cytometry on 293T cells transiently expressing LILRA6, APC anti-human Fc; gMFI as fold to IgG staining
T10 construct: whole, on cells; GFP-tagged; also called human LILRA6; CHO-LILRA6
T10 sequence (Q6PI73 24-481): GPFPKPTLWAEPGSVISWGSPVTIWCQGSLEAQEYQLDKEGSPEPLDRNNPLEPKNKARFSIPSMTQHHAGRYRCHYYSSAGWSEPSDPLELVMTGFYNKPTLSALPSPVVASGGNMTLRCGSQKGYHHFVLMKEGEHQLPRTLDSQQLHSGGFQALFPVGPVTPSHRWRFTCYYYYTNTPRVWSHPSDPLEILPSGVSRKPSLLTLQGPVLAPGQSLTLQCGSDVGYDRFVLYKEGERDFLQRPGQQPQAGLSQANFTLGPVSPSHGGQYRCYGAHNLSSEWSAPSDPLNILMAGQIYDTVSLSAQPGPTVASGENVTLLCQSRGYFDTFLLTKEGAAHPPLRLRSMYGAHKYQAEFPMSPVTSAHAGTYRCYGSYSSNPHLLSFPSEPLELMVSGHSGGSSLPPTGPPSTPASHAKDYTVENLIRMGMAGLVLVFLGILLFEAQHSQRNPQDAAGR

T2 sequence (Q8N423 other isoform, or with tags, fused parts or gaps limits assumed): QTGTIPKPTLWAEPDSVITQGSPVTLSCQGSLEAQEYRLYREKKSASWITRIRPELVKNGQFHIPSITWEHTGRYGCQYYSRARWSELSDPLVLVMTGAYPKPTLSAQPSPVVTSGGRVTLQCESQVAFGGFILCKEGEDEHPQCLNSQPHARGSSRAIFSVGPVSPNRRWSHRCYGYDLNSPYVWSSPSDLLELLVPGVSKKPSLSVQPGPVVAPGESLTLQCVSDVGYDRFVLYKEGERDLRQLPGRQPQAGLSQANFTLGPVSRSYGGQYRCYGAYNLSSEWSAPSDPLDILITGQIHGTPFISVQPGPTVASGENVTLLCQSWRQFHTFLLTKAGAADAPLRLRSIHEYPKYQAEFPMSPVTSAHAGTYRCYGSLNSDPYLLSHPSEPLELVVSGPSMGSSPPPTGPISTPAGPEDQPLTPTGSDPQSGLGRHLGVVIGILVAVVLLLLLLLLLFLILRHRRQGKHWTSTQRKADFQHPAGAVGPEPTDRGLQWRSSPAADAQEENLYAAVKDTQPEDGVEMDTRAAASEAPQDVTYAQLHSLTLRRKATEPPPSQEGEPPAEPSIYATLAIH
T1 sequence (Q8N6C8 24-439 limits assumed): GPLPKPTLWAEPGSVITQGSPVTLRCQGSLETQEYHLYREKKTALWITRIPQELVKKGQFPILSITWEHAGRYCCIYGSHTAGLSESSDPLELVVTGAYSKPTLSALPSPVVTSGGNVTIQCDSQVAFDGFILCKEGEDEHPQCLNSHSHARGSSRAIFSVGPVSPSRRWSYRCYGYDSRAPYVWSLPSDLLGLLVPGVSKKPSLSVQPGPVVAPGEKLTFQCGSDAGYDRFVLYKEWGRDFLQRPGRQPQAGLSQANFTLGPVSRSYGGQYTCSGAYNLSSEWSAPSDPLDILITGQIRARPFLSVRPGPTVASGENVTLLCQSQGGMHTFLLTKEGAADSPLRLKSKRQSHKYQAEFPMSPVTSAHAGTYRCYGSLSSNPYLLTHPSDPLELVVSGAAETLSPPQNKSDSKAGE
T7 sequence (Q8N423 other isoform, or with tags, fused parts or gaps H02H H02H): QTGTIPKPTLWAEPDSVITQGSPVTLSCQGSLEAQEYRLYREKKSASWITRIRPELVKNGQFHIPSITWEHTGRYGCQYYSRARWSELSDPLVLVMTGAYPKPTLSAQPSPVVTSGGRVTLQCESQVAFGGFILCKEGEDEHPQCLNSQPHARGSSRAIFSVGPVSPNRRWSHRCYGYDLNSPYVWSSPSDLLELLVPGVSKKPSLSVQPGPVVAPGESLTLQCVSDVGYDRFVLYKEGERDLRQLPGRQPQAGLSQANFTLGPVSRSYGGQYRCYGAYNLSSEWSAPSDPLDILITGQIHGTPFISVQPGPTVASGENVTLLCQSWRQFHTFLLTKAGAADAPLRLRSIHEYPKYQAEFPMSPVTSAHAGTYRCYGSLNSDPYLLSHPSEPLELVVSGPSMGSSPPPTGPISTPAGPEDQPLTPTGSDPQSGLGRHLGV
T4 sequence (Q8NHL6 other isoform, or with tags, fused parts or gaps limits assumed): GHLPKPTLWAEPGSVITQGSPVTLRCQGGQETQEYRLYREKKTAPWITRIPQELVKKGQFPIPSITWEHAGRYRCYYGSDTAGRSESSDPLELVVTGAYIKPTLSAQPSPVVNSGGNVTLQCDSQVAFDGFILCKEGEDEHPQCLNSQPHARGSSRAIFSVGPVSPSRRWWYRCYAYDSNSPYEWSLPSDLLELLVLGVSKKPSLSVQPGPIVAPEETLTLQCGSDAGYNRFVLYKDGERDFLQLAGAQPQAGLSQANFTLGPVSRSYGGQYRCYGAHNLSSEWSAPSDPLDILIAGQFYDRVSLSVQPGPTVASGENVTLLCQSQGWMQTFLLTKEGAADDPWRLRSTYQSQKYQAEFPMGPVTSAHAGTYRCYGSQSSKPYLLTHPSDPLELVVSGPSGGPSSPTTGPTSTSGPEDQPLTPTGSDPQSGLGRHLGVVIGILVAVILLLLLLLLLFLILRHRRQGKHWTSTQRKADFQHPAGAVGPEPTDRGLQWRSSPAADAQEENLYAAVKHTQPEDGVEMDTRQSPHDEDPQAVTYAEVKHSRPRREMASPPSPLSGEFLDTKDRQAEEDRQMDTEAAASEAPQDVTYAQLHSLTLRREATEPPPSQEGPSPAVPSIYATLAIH
T6 sequence (O75023 24-590 limits assumed): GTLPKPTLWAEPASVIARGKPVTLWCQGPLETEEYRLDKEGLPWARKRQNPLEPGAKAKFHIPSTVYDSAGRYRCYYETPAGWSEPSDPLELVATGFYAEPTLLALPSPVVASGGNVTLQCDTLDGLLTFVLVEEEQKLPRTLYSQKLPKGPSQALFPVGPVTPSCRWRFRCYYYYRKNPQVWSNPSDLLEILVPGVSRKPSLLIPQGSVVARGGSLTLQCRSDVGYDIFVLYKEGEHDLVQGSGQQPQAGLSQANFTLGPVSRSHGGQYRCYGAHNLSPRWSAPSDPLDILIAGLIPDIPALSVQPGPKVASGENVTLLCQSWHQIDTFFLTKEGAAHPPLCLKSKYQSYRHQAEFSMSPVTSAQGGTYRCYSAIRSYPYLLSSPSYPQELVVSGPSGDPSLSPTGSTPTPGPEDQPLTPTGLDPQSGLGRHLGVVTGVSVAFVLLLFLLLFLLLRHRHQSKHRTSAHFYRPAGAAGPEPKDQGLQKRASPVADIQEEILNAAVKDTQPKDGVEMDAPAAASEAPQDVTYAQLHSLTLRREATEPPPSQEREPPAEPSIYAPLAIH
T5 sequence (A6NI73 42-299 limits assumed): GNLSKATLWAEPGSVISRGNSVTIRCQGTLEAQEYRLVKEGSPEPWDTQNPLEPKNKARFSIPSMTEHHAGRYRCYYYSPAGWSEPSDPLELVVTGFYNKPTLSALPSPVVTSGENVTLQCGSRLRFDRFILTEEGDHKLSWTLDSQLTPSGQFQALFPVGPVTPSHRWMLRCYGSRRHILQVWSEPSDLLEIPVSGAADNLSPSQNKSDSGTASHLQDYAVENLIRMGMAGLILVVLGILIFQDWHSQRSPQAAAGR
T8 sequence (Q8NHL6 other isoform, or with tags, fused parts or gaps H02H H02H): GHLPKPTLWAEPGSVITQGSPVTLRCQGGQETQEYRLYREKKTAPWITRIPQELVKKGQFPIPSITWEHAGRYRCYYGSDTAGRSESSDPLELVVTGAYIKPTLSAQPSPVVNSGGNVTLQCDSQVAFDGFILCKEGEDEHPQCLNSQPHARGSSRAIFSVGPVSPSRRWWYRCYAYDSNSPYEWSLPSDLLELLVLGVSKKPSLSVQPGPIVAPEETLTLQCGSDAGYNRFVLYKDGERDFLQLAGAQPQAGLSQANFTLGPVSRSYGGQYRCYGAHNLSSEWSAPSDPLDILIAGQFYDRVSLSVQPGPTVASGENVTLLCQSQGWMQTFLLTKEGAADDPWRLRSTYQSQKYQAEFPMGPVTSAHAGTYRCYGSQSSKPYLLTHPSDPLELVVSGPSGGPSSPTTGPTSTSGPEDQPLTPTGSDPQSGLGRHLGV
T3 sequence (Q8N149 24-483 limits assumed): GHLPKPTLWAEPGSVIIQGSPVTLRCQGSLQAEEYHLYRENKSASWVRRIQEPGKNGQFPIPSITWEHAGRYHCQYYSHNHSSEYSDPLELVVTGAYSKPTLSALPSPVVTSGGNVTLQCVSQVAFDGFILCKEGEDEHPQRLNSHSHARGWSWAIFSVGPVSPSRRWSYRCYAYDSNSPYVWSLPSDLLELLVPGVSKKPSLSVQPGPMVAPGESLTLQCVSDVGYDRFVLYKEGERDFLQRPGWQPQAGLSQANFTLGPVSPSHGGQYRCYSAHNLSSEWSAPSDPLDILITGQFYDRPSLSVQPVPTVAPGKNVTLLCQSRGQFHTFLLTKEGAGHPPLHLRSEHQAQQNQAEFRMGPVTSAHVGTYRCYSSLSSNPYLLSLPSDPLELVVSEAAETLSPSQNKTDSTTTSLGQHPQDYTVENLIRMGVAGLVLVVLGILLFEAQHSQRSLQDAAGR

B1: Anti-LILRB2 antibody 1E1(QE) (antibody, human IgG4 S228P, lambda, V domains shown)
VH: EVQLQQWGAGLLKPSETLSLTCAVYGGSFSGYYWSWIRQPPGKGLEWIGEINHSGSTNYNPSLKSRVTISVDTSKNQFSLKLSSVTAADTAVYYCARLPTRWVTTRYFDLWGRGTLVTVSS
VL: ESVLTQPPSVSGAPGQRVTISCTGSSSNIGAGYDVHWYQQLPGTAPKLLIYGNSNRPSGVPDRFSVSKSGASASLAITGLQAEDEADYYCQSFDNSLSAYVFGGGTQLTVLG
With B1 the binding result [1] was “no binding (tested: 5 µg/mL)”, the EC50 [2] was 0.042 µg/mL and the “gMFI (max)” value [2] was 11800. For the same binder, the binding result [3] was “no binding (tested: 5 µg/mL)”, the “EC50 (read off the curve)” value [4] was about 0.04 µg/mL and the binding result [5] was “no binding (tested: 5 µg/mL)”. B1: binds [6]; no binding (tested: 5 µg/mL) [7]; binds [8]. B1: no binding [9]; no binding (tested: 5 µg/mL) [10]; no binding (tested: 5 µg/mL) [11].
